Reference: US11957716B2 (Immatics Biotechnologies GmbH, priority 2021, dated 2024)

What was measured:
HLA-A*24:02 = HLA-A*24:02 (Homo sapiens, UniProt P04439, D101N/D140Y/D185E/E176V/E190D/F33S/G103R/G107R/I119L/I121M/I306V/K335N/L105A/L180Q/L300P/N151K/N90K/Q86E/Q94H/R106L/R138H/R89G/T104I/T345S/V100E/W191G/Y123F); assay: MHC binding assay, UV-ligand exchange ELISA; settings: peptide exchange yield, binding to HLA-A*24:02
Text: (§1) Candidate peptides for T cell based therapies according to the present invention were further tested for their MHC binding capacity (affinity). The individual peptide-MHC complexes were produced by UV-ligand exchange, where a UV-sensitive peptide is cleaved upon UV-irradiation and exchanged with the peptide of interest as analyzed. Only peptide candidates that can effectively bind and stabilize the peptide-receptive MHC molecules prevent dissociation of the MHC complexes. To determine the yield of the exchange reaction, an ELISA was performed based on the detection of the light chain (β2m) of stabilized MHC complexes. The assay was performed as generally described in Rodenko et al. (Rodenko et al., 2006).
(§2) 96 well MAXISorp plates (NUNC) were coated over night with 2 μg/ml streptavidin in PBS at room temperature, washed 4× and blocked for 1 h at 37° C. in 2% BSA containing blocking buffer. Refolded HLA-A*02:01/MLA-001 monomers served as standards, covering the range of 15-500 ng/ml. Peptide-MHC monomers of the UV-exchange reaction were diluted 100-fold in blocking buffer. Samples were incubated for 1 h at 37° C., washed four times, incubated with 2 μg/ml HRP conjugated anti-82m for 1 h at 37° C., washed again and detected with TMB solution that is stopped with […]. Absorption was measured at 450 nm. Candidate peptides that show a high exchange yield (preferably higher than 50%, most preferred higher than 75%) are generally preferred for a generation and production of antibodies or fragments thereof, and/or T cell receptors or fragments thereof, as they show sufficient avidity to the MHC molecules and prevent dissociation of the MHC complexes.

[1] = tested on: HLA-A*01:01, HLA-A*02:01, HLA-A*03:01, HLA-A*24:02, HLA-B*07:02, HLA-B*08:01 and HLA-B*44:02; assay: HLA alleles the peptides bind to (Table 7); assay type: binding, human; settings: allotype from the group HLA-A*01:01, HLA-A*02:01, HLA-A*03:01, HLA-A*24:02, HLA-B*07:02, HLA-B*08:01, HLA-B*44:02
Text: However, due to similarities in binding pattern such as the relevant anchoring positions some peptides bind to more than one allele, such an overlap is most likely, but not limited to, HLA-A*01 binding peptides also binding to HLA-B*15, HLA-A*03 binding peptides also binding to HLA-A*11, HLA-B*07 binding peptides also binding to HLA-B*35 and HLA-B*51.

HLA-B*07:0 = HLA-B*07:0 (Homo sapiens, UniProt P01889); assay: MHC binding assay, UV-ligand exchange ELISA; settings: peptide exchange yield, binding to HLA-B*07:0
Text: as §1, §2

Row | Substance | Peptide exchange (HLA-A*24:02) | Binders (HLA alleles the peptides according to the invention bind to) [1] | Peptide exchange (HLA-B*07:0)
1 | 3 (VYIASSFKI; listed as Homo sapiens) [compound 3] | ++++ (75% = ++++) | HLA-A*24:02 | 
2 | 6 (SHSLPAFTL; listed as Homo sapiens) [compound 6] | ++ (20% = ++) | HLA-A*24:02 | 
3 | 7 (IYIPTNSIYKF; listed as Homo sapiens) [compound 7] | ++++ (75% = ++++) | HLA-A*24:02 | 
4 | 13 (LYDTVTHTF; listed as Homo sapiens) [compound 13] | ++++ (75% = ++++) | HLA-A*24:02 | 
5 | 14 (ILAPPQRISF; listed as Homo sapiens) [compound 14] | ++++ (75% = ++++) | HLA-A*24:02 | 
6 | 16 (NFHTLAQQLLF; listed as Homo sapiens) [compound 16] | ++++ (75% = ++++) | HLA-A*24:02 | 
7 | 31 (VFLLLPYPRF; listed as Homo sapiens) [compound 31] | ++++ (75% = ++++) | HLA-A*24:02 | 
8 | 33 (AYIPFPPLI; listed as Homo sapiens) [compound 33] | ++++ (75% = ++++) | HLA-A*24:02 | 
9 | 40 (LYQTTIELF; listed as Homo sapiens) [compound 40] | ++++ (75% = ++++) | HLA-A*24:02 | 
10 | 43 (VFIPSVINL; listed as Homo sapiens) [compound 43] | ++++ (75% = ++++) | HLA-A*24:02 | 
11 | 47 (LYIFTTRPF; listed as Homo sapiens) [compound 47] | ++++ (75% = ++++) | HLA-A*24:02 | 
12 | 49 (IYFHLNNWTI; listed as Homo sapiens) [compound 49] | ++++ (75% = ++++) | HLA-A*24:02 | 
13 | 62 (SFSLLLPYL; listed as Homo sapiens) [compound 62] | +++ (50% = +++) | HLA-A*24:02 | 
14 | 67 (GRFWLPFNF; listed as Homo sapiens) [compound 67] | ++ (20% = ++) | HLA-A*24:02 | 
15 | 69 (KYPTIICGF; listed as Homo sapiens) [compound 69] | ++++ (75% = ++++) | HLA-A*24:02 | 
16 | 76 (VQSGVPSRF; listed as Homo sapiens) [compound 76] | ++ (20% = ++) | HLA-A*24:02 | 
17 | 80 (IFDLSDPRF; listed as Homo sapiens) [compound 80] | ++ (20% = ++) | HLA-A*24:02 | 
18 | 87 (LHLNPGLSF; listed as Homo sapiens) [compound 87] | ++ (20% = ++) | HLA-A*24:02 | 
19 | 115 (LWEEKPVCL; listed as Homo sapiens) [compound 115] | ++ (20% = ++) | HLA-A*24:02 | 
20 | 116 (IYLTKSNLVNM; listed as Homo sapiens) [compound 116] | ++++ (75% = ++++) | HLA-A*24:02 | 
21 | 123 (TYLESSVRI; listed as Homo sapiens) [compound 123] | ++++ (75% = ++++) | HLA-A*24:02 | 

Row | Substance | Peptide exchange (HLA-A*24:02) | Binders (HLA alleles the peptides according to the invention bind to) [1] | Peptide exchange (HLA-B*07:0)
22 | 132 (LYLETRSEF; listed as Homo sapiens) [compound 132] | ++++ (75% = ++++) | HLA-A*24:02 | 
23 | 133 (KFPPSASEF; listed as Homo sapiens) [compound 133] | ++++ (75% = ++++) | HLA-A*24:02 | 
24 | 158 (FQLSGPVTF; listed as Homo sapiens) [compound 158] | ++ (20% = ++) | HLA-A*24:02 | 
25 | 160 (EYLGSENVF; listed as Homo sapiens) [compound 160] | +++ (50% = +++) | HLA-A*24:02 | 
26 | 163 (LWALAIPSL; listed as Homo sapiens) [compound 163] | +++ (50% = +++) | HLA-A*24:02 | 
27 | 164 (SHSSPTVSF; listed as Homo sapiens) [compound 164] | ++ (20% = ++) | HLA-A*24:02 | 
28 | 165 (FYNPRPPLI; listed as Homo sapiens) [compound 165] | ++++ (75% = ++++) | HLA-A*24:02 | 
29 | 173 (IFTGRNAYF; listed as Homo sapiens) [compound 173] | ++++ (75% = ++++) | HLA-A*24:02 | 
30 | 177 (SYLKDHLSL; listed as Homo sapiens) [compound 177] | ++++ (75% = ++++) | HLA-A*24:02 | 
31 | 180 (QYLTYYPSF; listed as Homo sapiens) [compound 180] | ++++ (75% = ++++) | HLA-A*24:02 | 
32 | 183 (VFVISGSHLF; listed as Homo sapiens) [compound 183] | ++++ (75% = ++++) | HLA-A*24:02 | 
33 | 186 (SQIKSPVVF; listed as Homo sapiens) [compound 186] | + (10% = +) | HLA-A*24:02 | 
34 | 189 (IWRALGSLF; listed as Homo sapiens) [compound 189] | ++++ (75% = ++++) | HLA-A*24:02 | 
35 | 194 (VLYPSHSSF; listed as Homo sapiens) [compound 194] | ++ (20% = ++) | HLA-A*24:02 | 
36 | 195 (AWNESSAWLL; listed as Homo sapiens) [compound 195] | ++++ (75% = ++++) | HLA-A*24:02 | 
37 | 199 (RAPLPLLLL; listed as Homo sapiens) [compound 199] |  |  | +++ (≥50% = +++)
38 | 207 (LPALLRSL; listed as Homo sapiens) [compound 207] |  |  | ++++ (≥75% = ++++)
39 | 208 (YVGPTRLEL; listed as Homo sapiens) [compound 208] |  |  | ++++ (≥75% = ++++)
40 | 210 (ASRIQVILL; listed as Homo sapiens) [compound 210] |  |  | +++ (≥50% = +++)
41 | 214 (RPSPVRVAAL; listed as Homo sapiens) [compound 214] |  |  | ++++ (≥75% = ++++)
42 | 215 (TPLTRTTL; listed as Homo sapiens) [compound 215] |  |  | +++ (≥50% = +++)
